Data reported in patent US20250326865A1, “C-MET PROTEIN-BINDING PEPTIDE COMPLEX” (PeptiDream Inc., priority 2021, published 2025).
Read-outs that look alike come from different tables or passages of the source. Starred links: 1 amine or outer side, 2 acyl side, 3 side chain; linkers in the order of their positions; H or OH if unused. Positions of bridges follow the written chain, without caps; N, C: chain ends. Non-standard residues stand in square brackets, D forms with d. Residues, ends and D or L forms follow the SMILES beside them. Primed or numbered codes have the meaning given here. Chains are numbered I, II in the order given. No end group written: not given here. CO(CH2)2(OCH2CH2)17CO = O=C(CCOCCOCCOCCOCCOCCOCCOCCOCCOCCOCCOCCOCCOCCOCCOCCOCCOCCC(=O)[*:2])[*:1]; OCOPEG13OCO = 3,6,9,12,15,18,21,24,27,30,33-undecaoxapentatriacontane-1,35-diylbis(bicarbonate); X1 = O=C(OCCOCCOCCOCCOCCOCCOCCOCCOCCOCCOCCOCCOC(=O)[*:2])[*:1]; NMeF = CN[C@@H](Cc1ccccc1)C(=O)O; Ahp(2) = CCCCC[C@H](N)C(=O)O; NMeC = CN[C@@H](CS)C(=O)O; Ahp′ = not defined here

Tests used:
human c-Met protein [1] = biological target: T1, human c-Met protein (human, UniProt P08581 25-1390); test: cell-based or functional assay
c-Met = biological target: T2, c-Met (Homo sapiens, UniProt P08581); test: Phospho-c-Met AlphaLISA assay (c-Met agonist activity) in A431 cells; format: cell-based; conditions: 15 minutes of stimulation; for EC50: concentration of peptide showing 50% activity of the signal induced by HGF, A431 cells, read-out: C-Met Agonist Activity (C50; nM)
T2 construct: endogenous in cells; host or cells: A431 (human)
Protocol: To evaluate the activation potency (c-Met agonist activity) of c-Met of the peptide complex of the present invention, the phosphorylation of c-Met was verified. Human A431 cells were cultured in DMEM high glucose, GlutaMAX (registered trademark) Supplement, pyruvate (Thermo Fisher Scientific), containing 10% FBS (Gibco). After cells were detached using Accutase (Innovative cell technologies), they were seeded into a 96-well plate at 10000 cells per well and cultured overnight. The next day, for starvation, the culture medium was changed to DMEM high glucose, GlutaMAX (registered trademark) Supplement, pyruvate (Thermo Fisher Scientific), containing 0.1% BSA (Sigma-Aldrich), and the cells were cultured overnight. Then, the peptide complex synthesized in Example 3 or Recombinant Human HGF Protein (R&D systems) as a control was added, and after 15 minutes of stimulation, cells were lysed in a Lysis Buffer provided in the AlphaLISA (registered trademark) SureFire (registered trademark) Ultra™ Phospho-c-Met (Tyr1234/1235) kit (PerkinElmer). The assay was performed according to the kit protocol, and a SpectraMax (registered trademark) Paradigm (registered trademark) multimode microplate reader (Molecular Devices, LLC.) was used for signal detection. […] In the same manner, the C50 value was calculated by GraphPad Prism as the concentration of peptide showing 50% activity of the signal induced by HGF. […] Further, for a complex (GFs_c-Met-00014336-PEG13 dimer; complex no. 49 in Table 4) of a peptide (SEQ ID NO: 34) and a linker (SEQ ID NO: 37), a graph of c-Met agonist activity is shown in FIG. 1.

human c-Met protein [2] = biological target: T1, human c-Met protein; test: cell-based or functional assay; remark: listed apart in the source
human c-Met protein [3] = biological target: T1, human c-Met protein; test: cell-based or functional assay; remark: listed apart in the source

T2 sequence (P08581 25-1390): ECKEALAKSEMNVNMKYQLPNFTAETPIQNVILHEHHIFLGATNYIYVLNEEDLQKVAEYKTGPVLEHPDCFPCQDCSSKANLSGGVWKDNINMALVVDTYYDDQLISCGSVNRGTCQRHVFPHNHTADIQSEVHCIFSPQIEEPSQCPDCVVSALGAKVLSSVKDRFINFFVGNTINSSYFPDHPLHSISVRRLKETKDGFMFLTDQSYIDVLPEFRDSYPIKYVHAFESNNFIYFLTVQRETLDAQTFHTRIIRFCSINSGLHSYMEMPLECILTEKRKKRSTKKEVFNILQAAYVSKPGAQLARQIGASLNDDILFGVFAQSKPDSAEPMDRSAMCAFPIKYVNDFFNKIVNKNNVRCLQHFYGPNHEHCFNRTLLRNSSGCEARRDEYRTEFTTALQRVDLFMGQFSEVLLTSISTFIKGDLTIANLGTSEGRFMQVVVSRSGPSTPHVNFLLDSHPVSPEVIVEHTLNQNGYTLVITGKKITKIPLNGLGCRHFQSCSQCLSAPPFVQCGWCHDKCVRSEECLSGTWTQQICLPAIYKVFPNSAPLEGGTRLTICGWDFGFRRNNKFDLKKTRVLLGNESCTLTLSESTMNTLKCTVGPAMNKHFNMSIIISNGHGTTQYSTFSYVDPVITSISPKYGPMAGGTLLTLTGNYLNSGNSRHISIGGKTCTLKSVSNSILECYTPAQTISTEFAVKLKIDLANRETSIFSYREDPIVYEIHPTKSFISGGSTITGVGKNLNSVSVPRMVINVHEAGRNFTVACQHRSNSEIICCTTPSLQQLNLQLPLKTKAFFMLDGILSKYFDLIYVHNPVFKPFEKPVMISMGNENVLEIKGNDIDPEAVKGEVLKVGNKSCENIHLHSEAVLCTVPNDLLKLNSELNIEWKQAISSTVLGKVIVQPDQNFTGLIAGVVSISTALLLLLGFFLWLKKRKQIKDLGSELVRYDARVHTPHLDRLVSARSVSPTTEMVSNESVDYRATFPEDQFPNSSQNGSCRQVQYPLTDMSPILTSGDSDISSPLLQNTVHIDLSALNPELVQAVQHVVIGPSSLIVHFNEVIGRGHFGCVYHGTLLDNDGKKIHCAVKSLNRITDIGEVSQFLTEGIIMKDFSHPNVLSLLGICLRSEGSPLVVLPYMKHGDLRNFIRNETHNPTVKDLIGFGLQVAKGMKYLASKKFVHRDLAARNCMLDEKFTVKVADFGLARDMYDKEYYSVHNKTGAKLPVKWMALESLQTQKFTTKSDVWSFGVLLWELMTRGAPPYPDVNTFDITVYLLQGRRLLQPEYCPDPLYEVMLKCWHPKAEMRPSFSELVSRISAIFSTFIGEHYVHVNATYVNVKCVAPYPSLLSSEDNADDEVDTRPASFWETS
T1 sequence (P08581 25-1390): as above

Recombinant Human HGF Protein (R&D systems) (from UniProt P14210 32-728) (ligand)
EC50, HUVEC cell proliferation (CellTiter-Glo) (human c-Met protein [1]): 0.37 nM | EC50, phospho-c-Met AlphaLISA, A431 cells (human c-Met protein [1]): 0.66 nM

CCCCC[C@@H]1NC(=O)[C@H](CC(=O)O)NC(=O)[C@H](CCC(=O)O)NC(=O)[C@H](CC(=O)O)NC(=O)[C@H](Cc2ccccc2)N(C)C(=O)[C@H](CO)NC(=O)[C@H](C(C)C)NC(=O)[C@H](C)NC(=O)[C@H]([C@@H](C)O)NC(=O)[C@H](Cc2ccccc2)N(C)C(=O)CSC[C@@H](C(=O)NCC(=O)N[C@@H](CCCCNC(=O)OCCOCCOCCOCCOCCOCCOCCOCCOCCOCCOCCOCCOC(=O)NCCCC[C@H](NC(=O)CNC(=O)[C@@H]2CSCC(=O)N(C)[C@@H](Cc3ccccc3)C(=O)N[C@@H]([C@@H](C)O)C(=O)N[C@@H](C)C(=O)N[C@@H](C(C)C)C(=O)N[C@@H](CO)C(=O)N(C)[C@@H](Cc3ccccc3)C(=O)N[C@@H](CC(=O)O)C(=O)N[C@@H](CCC(=O)O)C(=O)N[C@@H](CC(=O)O)C(=O)N[C@@H](CCCCC)C(=O)N3CCC[C@H]3C(=O)N[C@@H](CCCNC(=N)N)C(=O)N[C@@H](Cc3c[nH]c4ccccc34)C(=O)N[C@@H](CO)C(=O)N2C)C(N)=O)C(N)=O)N(C)C(=O)[C@H](CO)NC(=O)[C@H](Cc2c[nH]c3ccccc23)NC(=O)[C@H](CCCNC(=N)N)NC(=O)[C@@H]2CCCN2C1=O [Peptide 49] (I: {CH2CO}-[NMeF]TAVS[NMeF]DED[Ahp(2)]PRWS[NMeC]GK-NH2 / II: {CH2CO}-[NMeF]TAVS[NMeF]DED[Ahp(2)]PRWS[NMeC]GK-NH2; linker I:17-II:17 via X1 (inferred); thioether I:N-I:15, II:N-II:15 (inferred); C-terminus assumed)
EC50 (c-Met): 0.67 nM

CCCCC[C@@H]1NC(=O)[C@H](CC(=O)O)NC(=O)[C@@H]2CCCN2C(=O)[C@H](CC(=O)O)NC(=O)[C@H](Cc2ccccc2)N(C)C(=O)[C@H](CO)NC(=O)[C@H](C(C)C)NC(=O)[C@H](C)NC(=O)[C@H](CCC(=O)O)NC(=O)[C@H](Cc2ccccc2)N(C)C(=O)CSC[C@@H](C(=O)NCC(=O)N[C@@H](CCCCNC(=O)CCOCCOCCOCCOCCOCCOCCOCCOCCOCCOCCOCCOCCOCCOCCOCCOCCOCCC(=O)NCCCC[C@H](NC(=O)CNC(=O)[C@@H]2CSCC(=O)N(C)[C@@H](Cc3ccccc3)C(=O)N[C@@H](CCC(=O)O)C(=O)N[C@@H](C)C(=O)N[C@@H](C(C)C)C(=O)N[C@@H](CO)C(=O)N(C)[C@@H](Cc3ccccc3)C(=O)N[C@@H](CC(=O)O)C(=O)N3CCC[C@H]3C(=O)N[C@@H](CC(=O)O)C(=O)N[C@@H](CCCCC)C(=O)N3CCC[C@H]3C(=O)N[C@@H](CCCNC(=N)N)C(=O)N[C@@H](Cc3c[nH]c4ccccc34)C(=O)N[C@@H](C)C(=O)N2C)C(N)=O)C(N)=O)N(C)C(=O)[C@H](C)NC(=O)[C@H](Cc2c[nH]c3ccccc23)NC(=O)[C@H](CCCNC(=N)N)NC(=O)[C@@H]2CCCN2C1=O [Peptide 27] (I: {CH2CO}-[NMeF]EAVS[NMeF]DPD[Ahp(2)]PRWA[NMeC]GK-NH2 / II: {CH2CO}-[NMeF]EAVS[NMeF]DPD[Ahp(2)]PRWA[NMeC]GK-NH2; linker I:17-II:17 via CO(CH2)2(OCH2CH2)17CO (inferred); thioether I:N-I:15, II:N-II:15 (inferred); C-terminus assumed)
EC50 (c-Met): 2.37 nM

14 ({CH2CO}-[NMeF]VYVS[NMeF]DDD[Ahp′]PRWQ[NMeC]; thioether N-15 (inferred); not fully specified; reading uncertain; also: conjugated moiety via linker) [Peptide 14]
C-Met Agonist Activity (2 or 1) (c-Met; c-Met phosphorylation (Tyr1234/1235) in A431 cells, maximum signal induced by HGF = 100%): 2 (those showing more than 50% activation were described as 2)

B1: GFs_c-Met-00014336-PEG13 dimer (peptide SEQ ID NO: 34, GFs_c-Met-00014336p; linker SEQ ID NO: 37) (peptide)
peptide: {CH2CO}-[NMeF]TAVS[NMeF]DED[Ahp(2)]PRWS[NMeC]
chain: GK[OCOPEG13OCO]KG
modifications: thioether I:N-I:15 (inferred); also: homodimer: two cyclic peptides joined by linker G-K-OCOPEG13OCO-K-G, peptide C-terminus on linker
EC50, HUVEC cell proliferation (CellTiter-Glo) (human c-Met protein [2]): 0.55 nM | EC50, phospho-c-Met AlphaLISA, A431 cells (FIG. 1) (human c-Met protein [2]): 0.72 nM | C-Met Agonist Activity (C50; nM): phospho-c-Met AlphaLISA, A431 cells (human c-Met protein [3]): 0.67 nM
